Measurements from US20090074756A1 (published 2009).

Key:
[1] = target: T1, human LLT1 (Lectin-like transcript 1), full length (human, UniProt Q9UHP7 1-191); assay: flow cytometry, LLT1 multimer on LLT1-transfected HEK293T cells
T1 construct: Expressed on transfected HEK293T, Hela, C1R and P815 cells; The background says LLT1 is a homodimer on the cell surface; also called LLT1-pIRES2-EGFP transfected HEK293T cells
T1 sequence: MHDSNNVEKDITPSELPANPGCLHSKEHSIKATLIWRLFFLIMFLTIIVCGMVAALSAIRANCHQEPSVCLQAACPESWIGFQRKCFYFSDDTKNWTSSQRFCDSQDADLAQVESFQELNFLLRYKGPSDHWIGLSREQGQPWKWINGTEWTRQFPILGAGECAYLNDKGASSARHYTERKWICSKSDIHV
Procedure: (§1) Flow cytometry using the LLT1-Fc-ProteinA-biotin-Streptavidin-APC multimer (LLT1-multimer) was performed to identify the receptor of LLT1.

human CD161 (NKR-P1A) = target: T2, human CD161 (NKR-P1A) (human, UniProt Q12918 1-225); assay: flow cytometry, LLT1-Fc multimer on CD161-transfected HEK293T cells
T2 construct: Native on polyclonal human NK and T cells in the staining and functional assays; The background calls CD161 a disulfide-bond homodimer; also called CD161 receptor; CD161-pIRES2-EGFP transfected HEK293T cells
T2 sequence: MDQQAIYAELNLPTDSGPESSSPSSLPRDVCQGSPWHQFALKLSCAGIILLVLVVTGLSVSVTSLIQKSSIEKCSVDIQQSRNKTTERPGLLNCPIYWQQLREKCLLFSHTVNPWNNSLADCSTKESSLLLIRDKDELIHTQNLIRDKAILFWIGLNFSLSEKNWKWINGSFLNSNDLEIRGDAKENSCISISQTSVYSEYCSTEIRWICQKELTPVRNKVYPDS
Procedure: as §1

binding result [1]: no binding | binding result (human CD161 (NKR-P1A)): binds
B1: LLT1-Fc-ProteinA-biotin-Streptavidin-APC multimer (Fc fusion)
chain: RANCHQEPSVCLQAACPESWIGFQRKCFYFSDDTKNWTSSQRFCDSQDADLAQVESFQELNFLLRYKGPSDHWIGLSREQGQPWKWINGTEWTRQFPILGAGECAYLNDKGASSARHYTERKWICSKSDIHV
notes: also called LLT1-multimer; LLT1 multimer; not shown: Fc portion of human IgG1
